Measurements: article PMC3268006 (Journal of Molecular Biology, 2011)

biological target: matriptase (MT-SP1), human protease domain (human, UniProt Q9Y5Y6); test: steady-state enzyme inhibition kinetics
Sequence (Q9Y5Y6 615-855): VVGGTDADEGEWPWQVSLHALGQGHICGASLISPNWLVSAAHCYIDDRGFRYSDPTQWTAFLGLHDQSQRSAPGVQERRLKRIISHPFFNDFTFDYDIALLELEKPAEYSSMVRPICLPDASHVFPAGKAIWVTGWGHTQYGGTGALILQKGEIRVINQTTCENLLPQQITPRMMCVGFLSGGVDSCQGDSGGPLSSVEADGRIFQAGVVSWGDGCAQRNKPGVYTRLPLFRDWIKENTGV

Ki | Binder
1.5 nM | Fab A11 H R100aA (Fab, V domains shown) VH: EVQLVQSGGGLVKPGGSLRLSCAASGFTFSSYAMSWVRQAPGKGLEWVSAISGSGGSTYYADSVKGRFTISRDNSKNTLYLQMSSLRAEDTAVYYCVKDLGIAAARFVSGAFDIWGQGTMVTVSS VL: EIVLTQSPGTLSLSPGERATLSCRASQSVSSSYLAWYQQKPGQAPRLLIYGASTRATGIPARFSGSGSGTDFTLTINSLEPEDFAVYYCQQRSNWPPGYTFGQGTKVEIT
180 nM | Fab A11 H R100bK (Fab, V domains shown) VH: EVQLVQSGGGLVKPGGSLRLSCAASGFTFSSYAMSWVRQAPGKGLEWVSAISGSGGSTYYADSVKGRFTISRDNSKNTLYLQMSSLRAEDTAVYYCVKDLGIAARKFVSGAFDIWGQGTMVTVSS VL: EIVLTQSPGTLSLSPGERATLSCRASQSVSSSYLAWYQQKPGQAPRLLIYGASTRATGIPARFSGSGSGTDFTLTINSLEPEDFAVYYCQQRSNWPPGYTFGQGTKVEIT
180 nM | Fab A11 H R100bA (Fab, V domains shown) VH: EVQLVQSGGGLVKPGGSLRLSCAASGFTFSSYAMSWVRQAPGKGLEWVSAISGSGGSTYYADSVKGRFTISRDNSKNTLYLQMSSLRAEDTAVYYCVKDLGIAARAFVSGAFDIWGQGTMVTVSS VL: EIVLTQSPGTLSLSPGERATLSCRASQSVSSSYLAWYQQKPGQAPRLLIYGASTRATGIPARFSGSGSGTDFTLTINSLEPEDFAVYYCQQRSNWPPGYTFGQGTKVEIT
1 nM | Fab S4 (Fab, V domains shown) VH: EVQLVQSGAEVKKPGSSVKVSCKASGGTFSSYAISWVRQAGQGLEWMGGIIPIFGTANYAQKFQGRVTITADESTSTAYMELSSLRSEDTAVYYCARTFHIRRYRSGYYDKMDHWGQGTLVTVSS VL: VLTQPPSVSGAPGQRVTISCSGSSSNIGSNYVSWYQQKPGTAPKLLIYDNNQRPSGVPDRFSGSKSGTSAVLAITGLQSEDEADYYCQSRDISQYVFGGGTKLTVL
110 nM | Fab S4 H R100bK (Fab, V domains shown) VH: EVQLVQSGAEVKKPGSSVKVSCKASGGTFSSYAISWVRQAGQGLEWMGGIIPIFGTANYAQKFQGRVTITADESTSTAYMELSSLRSEDTAVYYCARTFHIRRYKSGYYDKMDHWGQGTLVTVSS VL: VLTQPPSVSGAPGQRVTISCSGSSSNIGSNYVSWYQQKPGTAPKLLIYDNNQRPSGVPDRFSGSKSGTSAVLAITGLQSEDEADYYCQSRDISQYVFGGGTKLTVL
93 nM | Fab S4 H R100bA (Fab, V domains shown) VH: EVQLVQSGAEVKKPGSSVKVSCKASGGTFSSYAISWVRQAGQGLEWMGGIIPIFGTANYAQKFQGRVTITADESTSTAYMELSSLRSEDTAVYYCARTFHIRRYASGYYDKMDHWGQGTLVTVSS VL: VLTQPPSVSGAPGQRVTISCSGSSSNIGSNYVSWYQQKPGTAPKLLIYDNNQRPSGVPDRFSGSKSGTSAVLAITGLQSEDEADYYCQSRDISQYVFGGGTKLTVL
